# Laboratory results as given in patent US9200252B2, “Compositions for inducing differentiation into retinal cells from retinal progenitor cells or inducing proliferation of retinal cells comprising Wnt signaling pathway activators” (SNU R&DB Foundation, priority 2009, dated 2015).
# “And” between values parts separate entries of the source, which are not always exact repeats. Equal entries are not always repeated.
# B1: Dkk-1: recombinant Dkk-1 (R&D Systems), Wnt/Frizzled signaling pathway inhibitor (protein, UniProt O94907 32-266, looked up)
# Dickkopf-related protein 1: TLNSVLNSNAIKNLPPPLGGAAGHPGSAVSAAPGILYPGGNKYQTIDNYQPYPCAEDEECGTDEYCASPTRGGDAGVQICLACRKRRKRCMRHAMCCPGNYCKNGICVSSDQNHFRGEIEETITESFGNDHSTLDGYSRRTTLSSKMYHTKGQEGSVCLRSSDCASGLCCARHFWSKICKPVLKEGQVCTKHRRKGSHGLEIFQRCYCGEGLSCRIQKDHHQASNSSRLHTCQRH
# B2: Wnt3a: recombinant Wnt3a (R&D Systems), Wnt signaling pathway activator (protein, UniProt P56704 19-352, looked up)
# Protein Wnt-3a: SYPIWWSLAVGPQYSSLGSQPILCASIPGLVPKQLRFCRNYVEIMPSVAEGIKIGIQECQHQFRGRRWNCTTVHDSLAIFGPVLDKATRESAFVHAIASAGVAFAVTRSCAEGTAAICGCSSRHQGSPGKGWKWGGCSEDIEFGGMVSREFADARENRPDARSAMNRHNNEAGRQAIASHMHLKCKCHGLSGSCEVKTCWWSQPDFRAIGDFLKDKYDSASEMVVEKHRESRGWVETLRPRYTYFKVPTERDLVYYEASPNFCEPNPETGSFGTRDRTCNVSSHGIDGCDLLCCGRGHNARAERRREKCRCVFHWCCYVSCQECTRVYDVHTCK
# Assays:
# Type in all cases: cell-based, human
# [1] = tested on: hESC-derived retinal progenitor cells; assay: Differentiation into photoreceptor cells with Wnt3a or its inhibitor Dkk-1, without Shh and retinoic acid; immunofluorescent staining on Day 29
# Protocol: In order to examine the function of the Wnt signaling pathway activator on differentiation from hESCs into retinal cells, particularly photoreceptor cells, cells were cultured in the presence of a Wnt signaling pathway antagonist. The Wnt/Frizzled signaling pathway inhibitor Dkk-1 (R&D Systems, Minneapolis, Minn., USA) was added at a concentration of 10 ng/ml, 100 ng/ml or 1 μg/ml on day 13, followed by culturing the cells for an additional 16 days. While the antagonist concentrations were maintained uniformly over the culture time period, the Wnt signaling pathway activator was assayed for activity. Dkk-1 was dissolved in 0.1% bovine serum albumin (BSA, Sigma-Aldrich) in PBS before use.
# According to a protocol for differentiation into retinal cells, Wnt3a and Dkk-1 were added on Day 13 at the following concentrations: 50 ng/ml Wnt3a (group I), free of both Wnt3a and Dkk-1 (group II), 10 ng/ml Dkk-1 (group III), 100 ng/ml Dkk-1 (group IV), and […] Dkk-1 (group V). In each medium, the cells were cultured to Day 29. In this experiment, none of the other major differentiation factors Shh and RA were used.
# On Day 29, the cells which had been cultured on poly-D-lysine/laminin-coated, 8-well slides (BD Biosciences) under the conditions of Wnt3a and Dkk-1 (groups I-V) were fixed with 4% paraformaldehyde (Sigma-Aldrich), after which non-specific reactions were blocked with PBS containing 3% BSA (Jackson Immunoresearch Laboratory, Bar Harbor, Me., USA) and 0.25% Triton X-100 (Sigma-Aldrich).
# (§1) After being blocked for 90 min, the slides in each differentiation step were incubated overnight at 4° C. with the following antibodies specific for cells of each differentiation step: rabbit-Blue-opsin (1:500, Chemicon), sheep-Chx10 (1:100, Chemicon), rabbit-Crx (1:200, Santa Cruz Biotechnology, Santa Cruz, Calif., USA), rabbit-GFAP (1:200, Invitrogen), mouse-human specific mitochondria (1:50, Chemicon), rabbit-human specific mitochondria (1:200, Chemicon), mouse-Islet1 (1:10, Developmental Studies Hydroma Bank, DSHB; Iowa City, Iowa, USA), mouse-Ki67 (1:100, Vector Laboratories, Peterborough, England), mouse-Mitf (1:1,000, abcam, Cambridge, Mass., USA), mouse-nestin (1:250, BD Sciences), rabbit-neurofilament-200 (1:1,000, Sigma-Aldrich), rabbit-Otx2 (1:100, abcam), rabbit-Pax2 (1:250, abcam), mouse-Pax6 (1:2, DSHB), mouse-peripherin2 (1:500, GenScript, Piscataway, N.J., USA), rabbit-Rax (1:250, abcam), rabbit-recoverin (1:1,000, Chemicon), retinal pigment epithelium 65 (RPE65, 1:100, Chemicon), rabbit-rhodopsin (1:500, Sigma-Aldrich), mouse-rhodopsin (1:500, Ret-P1, Lab Vision, Fremont, Calif., USA), mouse-rhodopsin (1:2,000, Ret-P1, Sigma-Aldrich), mouse-rom1 (1:50, ABR-Affinity Bioreagents, Golden, Colo., USA), rabbit-PDE6 beta (1:100, abcam), rabbit-phosducin (1:500, Santa Cruz Biotechnology), mouse-PKC-alpha (1:500, Sigma-Aldrich), mouse-Prox1 (1:2,000, Chemicon), mouse-Sox2 (1:250, R&D Systems), rabbit-synaptophysin (1:2,000, Santa Cruz Biotechnology), and rabbit-ZO-1 (1:100, Zymed-Invitrogen).
# Before use, these antibodies were diluted in a PBS solution containing 1% BSA and 0.25% Triton X-100. The cells were washed three times for 5 min with PBS and incubated at room temperature for 2 hrs with species-specific secondary antibody conjugated with Cy3 (1:800, Jackson Immunoresearch Laboratory) or Alexa488 (1:500, Invitrogen). A standard material suitable for the primary and the secondary antibody was used to examine non-specific staining or interaction between the antibodies. Afterwards, the cells were washed three times for 5 min with PBS, counterstained with DAPI (4,6-diamidino-2 phenylindole) and mounted in Vectashield (Vector Laboratories), followed by visualization under an epifluorescence microscope (Nikon Eclipse, E800, Tokyo, Japan) and a confocal microscope (Leica, Leica Microsystems Inc, Bannockburn, Ill., USA or Zeiss LSM510, Carl Zeiss, Inc, Thornwood, N.Y., USA). […]
# [2] = tested on: hESC-derived retinal progenitor cells; assay: Expression levels of retinal cell markers before and after Wnt3a addition (retinal progenitor cells into neural retinal progenitor cells); details: on Day 18; Wnt3a 50 ng/ml for 5 days from Day 13
# Protocol: To differentiate the retinal progenitor cells generated in Example 3 into neural retinal progenitor cells, Dkk-1 supply was quit on day 3 after induction and a culture medium containing a combination of noggin, IGF-1, FGF2 and Wnt3a was supplied for 5 days (FIG. 1). The culture medium was composed as follows: [DMEM/F12 (Invitrogen), 1 mM L-glutamine (Invitrogen), 0.1 mM nonessential amino acids (Invitrogen), 0.1 mM mercaptoethanol (Sigma-Aldrich), 1% B27 supplement (Invitrogen), 1% N2 supplement (Invitrogen), 10 ng/ml noggin, 10 ng/ml IGF-1, 5 ng/ml FGF2, and 50 ng/ml recombinant Wnt3a (R&D Systems)].
# The eye field precursors (floating aggregates) were cultured in 8-well poly-D-lysine/laminin-coated slides (BD Biosciences, Bedford, Mass.) under the same conditions that were used for differentiation into the retinal progenitor cells, the neural retinal progenitor cells, the photoreceptor cell precursors and the photoreceptor cells. The cells completely cultured in each step were fixed with 4% paraformaldehyde (Sigma-Aldrich), after which non-specific reactions were blocked with PBS containing 3% BSA (Jackson Immunoresearch Laboratory, Bar Harbor, Me., USA) and 0.25% Triton X-100 (Sigma-Aldrich).
# as §1
# Before use, these antibodies were diluted in a PBS solution containing 1% BSA and 0.25% Triton X-100. The cells cultured on the slides in each step were washed three times for 5 min with PBS and incubated at room temperature for 2 hrs with species-specific secondary antibody conjugated with Cy3 (1:800, Jackson Immunoresearch Laboratory) or Alexa488 (1:500, Invitrogen). A standard material suitable for the primary and the secondary antibody was used to examine non-specific staining or interaction between the antibodies. Afterwards, the cells were washed three times for 5 min with PBS, counterstained with DAPI (4,6-diamidino-2 phenylindole) and mounted in Vectashield (Vector Laboratories), followed by visualization under an epifluorescence microscope (Nikon Eclipse, E800, Tokyo, Japan) and a confocal microscope (Leica, Leica Microsystems Inc, Bannockburn, Ill., USA or Zeiss LSM510, Carl Zeiss, Inc, Thornwood, N.Y., USA).
# 500 cells were counted from 20 microscopic fields randomly selected at 200 magnification and evaluated for positive responses to each antibody. Positive responses to antibodies were determined after at least three evaluations. […]
# [3] = tested on: hESC-derived retinal progenitor cells; assay: as above
# [4] = Dkk-1 10 ng/ml (Group III), from Day 13 to Day 29, no Wnt3a, Shh, RA
# [5] = Dkk-1 10 ng/ml, 100 ng/ml, 1 μg/ml
# [6] = Dkk-1 100 ng/ml (Group IV), from Day 13 to Day 29, no Wnt3a, Shh, RA
# [7] = Dkk-1 1 μg/ml (Group V), from Day 13 to Day 29, no Wnt3a, Shh, RA
# [8] = Wnt3a 50 ng/ml (Group I), from Day 13 to Day 29, no Shh, no RA
molecule,measurement,setting,value
B1,Positive rate of Crx,[1]; [4],54.3 (±3.1) %
same,Positive rate of Pax6,[1]; [4],63.9 (±0.9) %
same,Positive rate of peripherin2,[1]; [4],27.0 (±1.0) %
same,Positive rate of recoverin,[1]; [4],55.1 (±0.6) %
same,Positive rate of rhodopsin,[1]; [4],49.1 (±2.0) %
same,"Expression level of photoreceptor cell markers Crx, recoverin, rhodopsin and peripherin2 with increasing Dkk-1 concentration",[1]; [5],remarkably decreased
same,Expression level of retinal progenitor cell marker Pax6 with increase in Dkk-1 concentration,[1]; [5],decreased
same,Positive rate of Crx,[1]; [6],7.4 (±1.1) %
same,Positive rate of Pax6,[1]; [6],51.8 (±1.0) %
same,Positive rate of peripherin2,[1]; [6],2.1 (±1.0) %
same,Positive rate of recoverin,[1]; [6],41.5 (±1.3) %
same,Positive rate of rhodopsin,[1]; [6],28.9 (±0.5) %
same,Positive rate of Crx,[1]; [7],7.5 (±0.9) %
same,Positive rate of Pax6,[1]; [7],42.1 (±2.1) %
same,Positive rate of peripherin2,[1]; [7],0.1 (±0.1) %
same,Positive rate of recoverin,[1]; [7],15.2 (±4.0) %
same,Positive rate of rhodopsin,[1]; [7],11.9% and 11.9 (±3.0) %
B2,Positive rate of Crx,[1]; [8],32.5 (±0.3) %
same,Positive rate of Pax6,[1]; [8],82.1 (±4.0) %
same,Positive rate of peripherin2,[1]; [8],21.5 (±0.3) %
same,Positive rate of recoverin,[1]; [8],72.3 (±0.8) %
same,Positive rate of rhodopsin,[1]; [8],73.8 (±0.9) %
same,Expression level (positive rate) of Chx10 after Wnt3a addition,[2],64.5 (±1.6) %
same,Expression level (positive rate) of Crx after Wnt3a addition,[2],80.1% and 80.1 (±0.2) %
same,Expression level (positive rate) of Ki67 after Wnt3a addition,[2],31.5 (±0.5) %
same,Expression level (positive rate) of Mitf after Wnt3a addition,[2],2.7 (±1.0) %
same,Expression level (positive rate) of Nestin after Wnt3a addition,[2],18.0% and 18.0 (±1.4) %
same,Expression level (positive rate) of Otx2 after Wnt3a addition,[2],61.5 (±0.6) %
same,Expression level (positive rate) of Pax6 after Wnt3a addition,[2],89.1 (±2.5) %
same,Expression level (positive rate) of Peripherin2 after Wnt3a addition,[2],13.9% and 13.9 (±2.4) %
same,Expression level (positive rate) of Rax after Wnt3a addition,[2],98.2 (±0.9) %
same,Expression level (positive rate) of Recoverin after Wnt3a addition,[2],68.5% and 68.5 (±2.6) %
same,Expression level (positive rate) of Rhodopsin after Wnt3a addition,[2],52.9% and 52.9 (±3.4) %
same,Expression level (positive rate) of Sox2 after Wnt3a addition,[2],68.1 (±1.1) %
same,Pax6-positive cells with increase in Wnt3a concentration,[3],increased in a dose-dependent manner
